T1: BBP/Mud2 dimer (S. cerevisiae, UniProt Q12186 1-476; P36084 1-527)
T1 sequence (looked up) 1: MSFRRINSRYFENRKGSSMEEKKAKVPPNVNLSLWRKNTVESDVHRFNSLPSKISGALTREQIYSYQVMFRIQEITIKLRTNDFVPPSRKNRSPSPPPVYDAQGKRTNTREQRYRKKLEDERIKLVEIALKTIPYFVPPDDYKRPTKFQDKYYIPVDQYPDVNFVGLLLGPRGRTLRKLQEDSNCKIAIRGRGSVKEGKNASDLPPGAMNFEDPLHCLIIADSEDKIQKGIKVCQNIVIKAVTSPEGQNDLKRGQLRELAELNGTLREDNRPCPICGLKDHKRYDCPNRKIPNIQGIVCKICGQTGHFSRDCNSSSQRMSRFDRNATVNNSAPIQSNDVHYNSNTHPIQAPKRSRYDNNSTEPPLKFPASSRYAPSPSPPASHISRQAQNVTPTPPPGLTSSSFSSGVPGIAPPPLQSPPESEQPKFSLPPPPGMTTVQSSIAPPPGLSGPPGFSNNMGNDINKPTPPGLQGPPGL
T1 sequence (looked up) 2: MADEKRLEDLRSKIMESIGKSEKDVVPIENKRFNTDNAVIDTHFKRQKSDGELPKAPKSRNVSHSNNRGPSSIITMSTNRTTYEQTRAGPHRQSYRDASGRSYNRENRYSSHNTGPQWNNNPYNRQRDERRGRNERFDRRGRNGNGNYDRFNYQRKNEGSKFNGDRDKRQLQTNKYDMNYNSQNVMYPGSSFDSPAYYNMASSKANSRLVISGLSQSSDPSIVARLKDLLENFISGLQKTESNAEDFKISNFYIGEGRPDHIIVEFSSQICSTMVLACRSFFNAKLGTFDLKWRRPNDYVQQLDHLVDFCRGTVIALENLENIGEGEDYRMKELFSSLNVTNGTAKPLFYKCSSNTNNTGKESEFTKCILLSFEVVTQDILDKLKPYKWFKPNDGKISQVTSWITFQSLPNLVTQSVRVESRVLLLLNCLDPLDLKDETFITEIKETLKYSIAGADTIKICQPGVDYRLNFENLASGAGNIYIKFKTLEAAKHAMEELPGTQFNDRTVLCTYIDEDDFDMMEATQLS

B1: Prp40 (in the purified U1 snRNP of the Ubc4 E complex) (natural protein)
chain: MSIWKEAKDASGRIYYYNTLTKKSTWEKPKELISQEELLLRENGWKAAKTADGKVYYYNPTTRETSWTIPAFEKKVEPIAEQKHDTVSHAQVNGNRIALTAGEKQEPGRTINEEESQYANNSKLLNVRRRTKEEAEKEFITMLKENQVDSTWSFSRIISELGTRDPRYWMVDDDPLWKKEMFEKYLSNRSADQLLKEHNETSKFKEAFQKMLQNNSHIKYYTRWPTAKRLIADEPIYKHSVVNEKTKRQTFQDYIDTLIDTQKESKKKLKTQALKELREYLNGIITTSSSETFITWQQLLNHYVFDKSKRYMANRHFKVLTHEDVLNEYLKIVNTIENDLQNKLNELRLRNYTRDRIARDNFKSLLREVPIKIKANTRWSDIYPHIKSDPRFLHMLGRNGSSCLDLFLDFVDEQRMYIFAQRSIAQQTLIDQNFEWNDADSDEITKQNIEKVLENDRKFDKVDKEDISLIVDGLIKQRNEKIQQKLQNERRILEQKKHYFWLLLQRTYTKTGKPKPSTWDLASKELGESLEYKALGDEDNIRRQIFEDFKPESSAPTAESATANLTLTASKKRHLTPAVELDY
B2: Snu71 (in the purified U1 snRNP of the Ubc4 E complex) (natural protein, S. cerevisiae, UniProt P53207 1-620, looked up)
chain: MRDIVFVSPQLYLSSQEGWKSDSAKSGFIPILKNDLQRFQDSLKHIVDARNSLSETLLNSNDDGSIHNSDQNTGLNKDKEASIADNNSANKCATSSSRYQELKQFLPISLDQQIHTVSLQGVSSSFSRGQIESLLDHCLNLALTETQSNSALKVEAWSSFSSFLDTQDIFIRFSKVDEDEAFVNTLNYCKALFAFIRKLHEDFKIELHLDLNTKEYVEDRTGTIPSVKPEKASEFYSVFKNIEDQTDERNSKKEQLDDSSTQYKVDTNTLSDLPSDALDQLCKDIIEFRTKVVSIEKEKKMKSTYEESRRQRHQMQKVFDQIRKNHSGAKGSANTEEEDTNMEDEDEEDDTEDDLALEKRKEERDLEESNRRYEDMLHQLHSNTEPKIKSIRADIMSAENYEEHLEKNRSLYLKELLHLANDVHYDHHRSFKEQEERRDEEDRAKNGNAKELAPIQLSDGKAISAGKAAAITLPEGTVKSENYNADKNVSESSEHVKIKFDFKKAIDHSVESSSEDEGYRESELPPTKPSERSAAEDRLPFTADELNIRLTNLKESRYVDELVREFLGVYEDELVEYILENIRVNQSKQALLNELRETFDEDGETIADRLWSRKEFRLGT
B3: Snu56 (in the purified U1 snRNP of the Ubc4 E complex) (natural protein, S. cerevisiae)
chain: MRPRRRGLAYHHTKPKGQLSQGHYPTTSNDGQRRKVGNSEAFQSFDIWKNLDRIRSTKKNAGQFIKGSLLILPMRTEDKQQFDECMDELHKYISKDILRCYPQKEQKDEGMLFYIVLKDFNILDSCFVLSVLLAFQKRLWMAPSEKSYFRVPKNINLTGSFYLPKNIETGRGHIITSYRREQPSSSIVEVGFNVVPDFQQFQVKACHVSKFMNELSNFFSQVEFGKCEANVINYFKREYNRTYSQISLALYELPLIGDGLFDIKSYISKTRPIIETSKAQMIKHISEMKAYNEISGLQGDQFPRQQRPLSNSPSSNSISSSQTIEAGATSYQTQPQRHAVNKPSNVLNSSNRHSGPKTFEDGRYSEGNKPGFMTQDEIKQHCIGTIKASMDAVKKKSSYQILKTYVRCPRQNYIDIVYQNLNDLRSKTNCNIVVLNLNNLHESQMWLESLNTTNYTIFAQAPHPSTIRVISIGGVGEYIVKALELILNILEH
B4: U1-70K (in the purified U1 snRNP of the Ubc4 E complex) (natural protein, S. cerevisiae)
chain: MNYNLSKYPDDVSRLFKPRPPLSYKRPTDYPYAKRQTNPNITGVANLLSTSLKHYMEEFPEGSPNNHLQRYEDIKLSKIKNAQLLDRRLQNWNPNVDPHIKDTDPYRTIFIGRLPYDLDEIELQKYFVKFGEIEKIRIVKDKITQKSKGYAFIVFKDPISSKMAFKEIGVHRGIQIKDRICIVDIERGRTVKYFKPRRLGGGLGGRGYSNRDSRLPGRFASASTSNPAERNYAPRLPRRETSSSAYSADRYGSSTLDARYRGNRPLLSAATPTAAVTSVYKSRNSRTRESQPAPKEAPDY
B5: Luc7 (in the purified U1 snRNP of the Ubc4 E complex) (natural protein, S. cerevisiae)
chain: MSTMSTPAAEQRKLVEQLMGRDFSFRHNRYSHQKRDLGLHDPKICKSYLVGECPYDLFQGTKQSLGKCPQMHLTKHKIQYEREVKQGKTFPEFEREYLAILSRFVNECNGQISVALQNLKHTAEERMKIQQVTEELDVLDVRIGLMGQEIDSLIRADEVSMGMLQSVKLQELISKRKEVAKRVRNITENVGQSAQQKLQVCEVCGAYLSRLDTDRRLADHFLGKIHLGYVKMREDYDRLMKNNRTTNASKTATTLPGRRFV

Tests used:
Assay in all cases: cross-linking
BBP/Mud2 dimer = target: T1, BBP/Mud2 dimer
[1] = target: B2
[2] = target: B1

binding result (BBP/Mud2 dimer)	binding result [1]	binding result [2]	Binder
binds	binds	–	B1
binds	–	–	B2
binds	–	–	B3
–	–	binds	B4
binds	–	binds	B5

Source: publication PMC6939996 (Nature, 2019)
